KR20230117039A (dated 2023)
Each block holds one binder with its values, some of them ahead of it.

Key:
[1] = target: T1, hNinj1 extracellular domain peptide with added C-terminal lysine, biotinylated (human); assay: clone ELISA screen
T1 sequence (peptide, biotin on the added C-terminal lysine (K57)): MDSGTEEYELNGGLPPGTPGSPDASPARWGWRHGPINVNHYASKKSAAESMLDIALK

[2] = target: T2, NINJ1 peptide (analyte of the sandwich ELISA) (UniProt Q92982 1-56, limits assumed); assay: sandwich ELISA, NINJ1 titrated
T2 construct: also called Ninj1 펩타이드; NINJ1 펩타이드
T2 sequence (peptide, looked up): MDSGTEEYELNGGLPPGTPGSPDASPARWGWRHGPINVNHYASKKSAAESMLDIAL

[3] = target: T3, N-terminally biotinylated hNinj1 (2-56) peptide (human, UniProt Q92982 2-56, N-terminal biotin); assay: scFv clone ELISA screen
T3 construct: range 2-56; also called hNinj1 펩타이드
T3 sequence (peptide, looked up): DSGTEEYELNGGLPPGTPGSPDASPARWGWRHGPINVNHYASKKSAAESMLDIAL

- ELISA ratio hNinj1/control [1]: 5.09
B1: C12, Fab clone of the rabbit immune library (Fab, V domains shown)
VH: QEQLKETGGGLVQPGGSLKLSCKASGIDFNTYTVSWVRQAPGKGLELIGYVDPVFDDTYYATWVNGRFTISSHNAQNTVYLQLNSLTAADTATYFCARLGAYDSSSGYPNFSLWGPGTLVTISS
VL: ELTQPPSLSASLDTTARLTCTLSTDYSVGEYPLVWLQQVPGRPPRYLLGYHTDDIKHQGPGVPSRFSGSKDHSTNTGVLTISGLQPEDEADYYCAVGVVFGGGTQLTVTG

- EC50 [2]: ~0.03 µg/mL
B2: C12 anti-Ninj1 IgG antibody (antibody, V domains shown)
VH: B1 VH
VL: B1 VL
notes: Tested as IgG made in ExpiCHO; also called C12 IgG; 항 C12 Ninj1 항체

- ELISA ratio hNinj1/control [1]: 10.6
B3: G2, Fab clone of the rabbit immune library (Example 1.3.3) (Fab, V domains shown)
VH: B1 VH
VL: B1 VL

- ELISA ratio hNinj1/control [3]: 5.62
B4: E6, scFv clone of the VH3VL1 synthetic human antibody library (scFv)
chain: EVQLLESGGGLVQPGGSLRLSCAASGFTFSSYAIHWVRQAPGKGLEWVSAISGSGGSTYYADSVKGRFTISRNNSKNTLYLQVNSLRAEDTAVYYCARNPTYGGFDIWGQGTLVTVSSGGGGSGGGGSGGGGSQSVLTQPPSASGTPGQRVTISCSGSSSNIGSNYVYWYQQLPGTAPKLLIYRNNQRPSGVPDRFSGSKSGTSASLAISGLRSEDEADYYCGAWDDSLSSPVFGGGTKLTVLGQAGQHHHHHHGAYPYDVPDYAS

- ELISA ratio hNinj1/control [3]: 6.18
B5: C11, scFv clone of the VH3VL1 synthetic human antibody library (scFv)
chain: EVQLLESGGGLVQPGGSLRLSCAASGFTFSSYGISWVRQAPGKGLEWVSAISGSGGSTYYADSVKGRFTISRDNSKNTLYLQMNSLRAEDTAVYYCARTPIDADAFDYWGQGTLVTVSSGGGGSGGGGSGGGGSQSVLTQPPSASGTPGQRVTISCTGNIGNIASNYVQWYQQLPGTAPKLLIYDTYNKHRGVPDRFSGSKSGTSASLAISGLRSEDEADYYCGAWDDSLSGPVFGGGTKLTVLGQAGQHHHHHHGAYPYDVPDYAS

- ELISA ratio hNinj1/control [3]: 5.12
B6: B3, scFv clone of the VH3VL1 synthetic human antibody library (scFv)
chain: EVQLLESGGGLVQPGGSLRLSCAASGFTFSDYDMSWVRQAPGKGLEWVSGISSDNGSTYYADSVKGRFTISRDNSKNTLYLQMNSLRAEDTAVYYCARAAITCNNEWCYYYDAMDVWGQGTLVTVSSGGGGSGGGGSGGGGSQSVLTQPPSASGTPGQRVTISCTGPSSNIGNNDVSWYQQLPGTAPKLLIYANSNRPSGVSDRFSGSKSGTSASLAISGLRSEDEADYYCGAWDDSLNGYVFGGGTKLTVLGQAGQHHHHHHGAYPYDVPDYAS
